Experimental findings from US20140120109A1 (Regeneron, published 2014) are described below.

The chains are these.
B4: mouse TL1A, soluble, E. coli-expressed, residues 76-252 of SEQ ID NO:250 (ligand)
chain: ITEERSEPSPQQVYSPPRGKPRAHLTIKKQTPAPHLKNQLSALHWEHDLGMAFTKNGMKYINKSLVIPESGDYFIYSQITFRGTTSVCGDISRGRRPNKPDSITMVITKVADSYPEPARLLTGSKSVCEISNNWFQSLYLGATFSLEEGDRLMVNVSDISLVDYTKEDKTFFGAFLL
B9: cynomolgus monkey TL1A, soluble, E. coli-expressed, residues 72-251 of SEQ ID NO:248 (ligand)
chain: LKGQEFAPSHQQVYAPLRADGDKPRAHLTVVRQTPTQHLKNQFPALHWEHELGLAFTKNRMNYTNKFLLIPESGDYFVYSQVTFRGMTSECSEIRQAGRPNKPDSITVVITKVTDSYPEPTQLLMGTKSVCEVGSNWFQPIYLGAMFSLQEGDKLMVNVSDISLVDYTKEDKTFFGAFLL

Assay [1] has as its target T1, human DR3, full-length, expressed on HEK293 NFkB-luciferase reporter cells (human, UniProt Q93038 25-417).
T1 sequence: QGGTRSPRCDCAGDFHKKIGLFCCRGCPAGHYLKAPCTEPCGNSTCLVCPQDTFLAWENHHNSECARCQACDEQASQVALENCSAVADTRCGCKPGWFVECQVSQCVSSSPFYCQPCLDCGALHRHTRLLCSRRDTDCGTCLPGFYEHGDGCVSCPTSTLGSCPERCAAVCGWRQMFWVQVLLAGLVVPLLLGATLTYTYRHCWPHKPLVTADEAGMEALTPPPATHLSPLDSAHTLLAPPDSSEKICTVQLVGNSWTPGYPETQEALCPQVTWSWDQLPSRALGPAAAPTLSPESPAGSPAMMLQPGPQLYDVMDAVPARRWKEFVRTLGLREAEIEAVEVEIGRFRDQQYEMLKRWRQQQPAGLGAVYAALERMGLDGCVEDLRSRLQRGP
Description: cell-based or functional assay.

The target in assay [2] is B4. Description: SPR 25C, steady state. On the procedure: Measurements were conducted on a T100 BIACORE™ instrument. […] Kinetic association (kₐ) and dissociation (kd) rate constants were determined by fitting the data to a 1:1 binding model using BIAevaluation 4.1 curve fitting software (BIAcore Life Sciences). Molar concentrations of TL1A/Fhm used in the data fitting assumed a monomeric state for TL1A in solution. […]

The target of assay [3] is T2, Fhm, hTL1A(Q167R), soluble, E. coli-expressed, residues 72-251 of SEQ ID NO:246 (human, UniProt O95150 72-251).
T2 construct: with or without N-terminal Met
T2 chain: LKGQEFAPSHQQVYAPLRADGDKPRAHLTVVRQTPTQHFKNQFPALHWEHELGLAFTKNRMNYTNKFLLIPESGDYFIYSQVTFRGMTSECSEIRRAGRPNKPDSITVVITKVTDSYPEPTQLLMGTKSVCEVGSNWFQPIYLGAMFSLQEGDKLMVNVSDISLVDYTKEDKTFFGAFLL
In words: SPR 25C, mAb captured. On the procedure:
(§1) Measurements were conducted on a T100 BIACORE™ instrument. […] Kinetic association (kₐ) and dissociation (kd) rate constants were determined by fitting the data to a 1:1 binding model using BIAevaluation 4.1 curve fitting software (BIAcore Life Sciences). Molar concentrations of TL1A/Fhm used in the data fitting assumed a monomeric state for TL1A in solution. Binding dissociation equilibrium constants (KD) and dissociative half-lives (t_{1/2}) were calculated from the kinetic rate constants as: KD (M)=kd/kₐ; and t_{1/2} (min)=[In2/(60*kd)].

In assay [4] the target is B9. Description: SPR 25C, mAb captured. How it is done: as §1
The target of assay [5] is B9. In words: SPR 37C, mAb captured. How it is done:
as §1

B1: human TL1A, soluble, CHO-expressed, residues 72-251 of SEQ ID NO:244 with N-terminal His6-tag (ligand)
chain: HHHHHHLKGQEFAPSHQQVYAPLRADGDKPRAHLTVVRQTPTQHFKNQFPALHWEHELGLAFTKNRMNYTNKFLLIPESGDYFIYSQVTFRGMTSECSEIRQAGRPNKPDSITVVITKVTDSYPEPTQLLMGTKSVCEVGSNWFQPIYLGAMFSLQEGDKLMVNVSDISLVDYTKEDKTFFGAFLL
Take B1: the “EC50, NFkB-luciferase reporter” value in assay [1] is 0.63 nM.

B2: cynomolgus monkey TL1A, soluble, CHO-expressed, residues 72-251 of SEQ ID NO:248 with N-terminal His6-tag (ligand)
chain: HHHHHHLKGQEFAPSHQQVYAPLRADGDKPRAHLTVVRQTPTQHLKNQFPALHWEHELGLAFTKNRMNYTNKFLLIPESGDYFVYSQVTFRGMTSECSEIRQAGRPNKPDSITVVITKVTDSYPEPTQLLMGTKSVCEVGSNWFQPIYLGAMFSLQEGDKLMVNVSDISLVDYTKEDKTFFGAFLL
Take B2: the “EC50, NFkB-luciferase reporter” value in assay [1] was 0.86 nM.

B3: Fhm, hTL1A(Q167R), soluble, CHO-expressed, residues 72-251 of SEQ ID NO:246 (ligand)
chain: HHHHHHLKGQEFAPSHQQVYAPLRADGDKPRAHLTVVRQTPTQHFKNQFPALHWEHELGLAFTKNRMNYTNKFLLIPESGDYFIYSQVTFRGMTSECSEIRRAGRPNKPDSITVVITKVTDSYPEPTQLLMGTKSVCEVGSNWFQPIYLGAMFSLQEGDKLMVNVSDISLVDYTKEDKTFFGAFLL
Consider B3, for which, in assay [1], the “EC50, NFkB-luciferase reporter” value came to 0.32 nM.
As to B4, the “EC50, NFkB-luciferase reporter” value in assay [1] stood at 0.01 nM.

B5: rat TL1A, soluble, CHO-expressed, residues 76-252 of SEQ ID NO:258 with N-terminal His6-tag (ligand)
chain: HHHHHHVTEERSAPSAQPVYTPSRDKPKAHLTIMRQTPVPHLKNELAALHWENNLGMAFTKNRMNYTNKFLVIPESGDYFIYSQITFRGTTSECGDISRVRRPKKPDSITVVITKVADSYPEPAHLLTGTKSVCEISSNWFQPIYLGAMFSLEEGDRLMVNVSDISLVDYTKEDKTFFGAFLI
As to B5, in assay [1], the “EC50, NFkB-luciferase reporter” value was determined as 0.06 nM.

B6: mouse TL1A, soluble, CHO-expressed, residues 76-252 of SEQ ID NO:250 with N-terminal His6-tag (ligand)
chain: HHHHHHITEERSEPSPQQVYSPPRGKPRAHLTIKKQTPAPHLKNQLSALHWEHDLGMAFTKNGMKYINKSLVIPESGDYFIYSQITFRGTTSVCGDISRGRRPNKPDSITMVITKVADSYPEPARLLTGSKSVCEISNNWFQSLYLGATFSLEEGDRLMVNVSDISLVDYTKEDKTFFGAFLL
As to B6, the “EC50, NFkB-luciferase reporter” value in assay [1] came to 0.08 nM.

B7: H2M1704N (antibody, V domains shown)
VH: EVQLVESGGGLVQPGGSLRLSCAVSGFTFSSYWMSWVRQAPGKGLEWVANIKEDGSEKNYVDSVKGRFTLSSDNAKNSLYLQMNSLRAEDTAVYYCAREDYDSYYKYGMDVWGQGTAVIVSS
VL: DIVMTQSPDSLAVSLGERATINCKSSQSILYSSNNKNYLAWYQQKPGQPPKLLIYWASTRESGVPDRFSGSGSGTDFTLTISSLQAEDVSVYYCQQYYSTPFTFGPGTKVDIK
notes: chimeric hybridoma antibody: human variable regions, mouse constant regions (mouse Fc)
B7: the Kd came out at 127 nM in assay [2], 0.282 nM in assay [3], 0.285 nM in assay [4] and 0.751 nM in assay [5]. Besides, the t1/2 was found to be 52 min in assay [3], 57 min in assay [4] and 16 min in assay [5].

B8: human TL1A, soluble, E. coli-expressed, residues 72-251 of SEQ ID NO:244 (ligand)
chain: LKGQEFAPSHQQVYAPLRADGDKPRAHLTVVRQTPTQHFKNQFPALHWEHELGLAFTKNRMNYTNKFLLIPESGDYFIYSQVTFRGMTSECSEIRQAGRPNKPDSITVVITKVTDSYPEPTQLLMGTKSVCEVGSNWFQPIYLGAMFSLQEGDKLMVNVSDISLVDYTKEDKTFFGAFLL
For B8, the “EC50, NFkB-luciferase reporter” value in assay [1] worked out at 0.12 nM.
The same measure, in the same setting: under B9 stands 2.02 nM.
